Measured values as given in US20230002480A1.

What was measured:
Assay in all cases: cell-based or functional assay
[1] = target: HIV-1 Env of pseudovirus 1056_10_TA11_1826 (HIV-1)
[2] = target: HIV-1 Env of pseudovirus CAP210.2.00.E8 (HIV-1)
[3] = target: HIV-1 Env of pseudovirus WITO4160.33 (HIV-1)
[4] = target: HIV-1 Env of pseudovirus ZM109F.PB4 (HIV-1)
[5] = target: HIV-1 Env of pseudovirus CNE58 (HIV-1)
[6] = target: HIV-1 Env of pseudovirus ZM249M.PL1 (HIV-1)
[7] = target: HIV-1 Env of pseudovirus Ce0682_E4 (HIV-1)
[8] = target: HIV-1 Env of pseudovirus BF1266.431a (HIV-1)
[9] = target: HIV-1 Env of pseudovirus 62357_14_D3_4589 (HIV-1)
[10] = target: HIV-1 Env of pseudovirus Ce1086_B2 (HIV-1)
[11] = target: HIV-1 Env of pseudovirus Ce0393_C3 (HIV-1)
[12] = target: HIV-1 Env of pseudovirus Ce2010_F5 (HIV-1)
[13] = target: HIV-1 Env of pseudovirus SC422661.8 (HIV-1)
[14] = target: HIV-1 Env of pseudovirus 9004SS_A3_4 (HIV-1)
[15] = target: HIV-1 Env of pseudovirus Q769.d22 (HIV-1)
[16] = target: HIV-1 Env of pseudovirus TRJO4551.58 (HIV-1)
[17] = target: HIV-1 Env of pseudovirus ZM53M.PB12 (HIV-1)
[18] = target: HIV-1 Env of pseudovirus HIV-16055-2.3 (HIV-1)
[19] = target: HIV-1 Env of pseudovirus ZM197M.PB7 (HIV-1)
[20] = target: HIV-1 Env of pseudovirus 249M B10 (HIV-1)
[21] = target: HIV-1 Env of pseudovirus CNE19 (HIV-1)
[22] = target: HIV-1 Env of pseudovirus P1981_C5_3 (HIV-1)
[23] = target: HIV-1 Env of pseudovirus C1080.c03 (HIV-1)
[24] = target: HIV-1 Env of pseudovirus BJOX025000.01.1 (HIV-1)
[25] = target: HIV-1 Env of pseudovirus BJOX015000.11.5 (HIV-1)
[26] = target: HIV-1 Env of pseudovirus C3347.c11 (HIV-1)
[27] = target: HIV-1 Env of pseudovirus 6480.v4.c25 (HIV-1)
[28] = target: HIV-1 Env of pseudovirus T251-18 (HIV-1)
[29] = target: HIV-1 Env of pseudovirus 6952.v1.c20 (HIV-1)
[30] = target: HIV-1 Env of pseudovirus 6811.v7.c18 (HIV-1)
[31] = target: HIV-1 Env of pseudovirus 231965.c01 (HIV-1)
[32] = target: HIV-1 Env of pseudovirus R2184.c04 (HIV-1)
[33] = target: HIV-1 Env of pseudovirus X2131_C1_B5 (HIV-1)
[34] = target: HIV-1 Env of pseudovirus 3301.v1.c24 (HIV-1)
[35] = target: HIV-1 Env of pseudovirus 6545.v4.c1 (HIV-1)

## PG16 (antibody)
[1]
  IC50, titer in TZM.bl cells: 0.315 µg/mL
  IC80, titer in TZM.bl cells: 1.95 µg/mL
[2]
  IC50, titer in TZM.bl cells: 0.01 µg/mL
  IC80, titer in TZM.bl cells: 0.042 µg/mL
[3]
  IC50, titer in TZM.bl cells: 0.002 µg/mL
  IC80, titer in TZM.bl cells: 0.012 µg/mL
[4]
  IC50, titer in TZM.bl cells: 7.03 µg/mL
  IC80, titer in TZM.bl cells: > 50 µg/mL
[5]
  IC50, titer in TZM.bl cells: 0.044 µg/mL
  IC80, titer in TZM.bl cells: 0.25 µg/mL
[6]
  IC50, titer in TZM.bl cells: 0.127 µg/mL
  IC80, titer in TZM.bl cells: 18.1 µg/mL
[7]
  IC50, titer in TZM.bl cells: 0.026 µg/mL
  IC80, titer in TZM.bl cells: 0.202 µg/mL
[8]
  IC50, titer in TZM.bl cells: 0.003 µg/mL
  IC80, titer in TZM.bl cells: 0.009 µg/mL
[9]
  IC50, titer in TZM.bl cells: > 50 µg/mL
  IC80, titer in TZM.bl cells: > 50 µg/mL
[10]
  IC50, titer in TZM.bl cells: > 50 µg/mL
  IC80, titer in TZM.bl cells: > 50 µg/mL
[11]
  IC50, titer in TZM.bl cells: 0.002 µg/mL
  IC80, titer in TZM.bl cells: 0.006 µg/mL
[12]
  IC50, titer in TZM.bl cells: > 50 µg/mL
  IC80, titer in TZM.bl cells: > 50 µg/mL
[13]
  IC50, titer in TZM.bl cells: 0.858 µg/mL
  IC80, titer in TZM.bl cells: > 50 µg/mL
[14]
  IC50, titer in TZM.bl cells: 0.02 µg/mL
  IC80, titer in TZM.bl cells: 0.111 µg/mL
[15]
  IC50, titer in TZM.bl cells: 0.005 µg/mL
  IC80, titer in TZM.bl cells: 0.018 µg/mL
[16]
  IC50, titer in TZM.bl cells: 1.01 µg/mL
  IC80, titer in TZM.bl cells: 24.5 µg/mL
[17]
  IC50, titer in TZM.bl cells: 0.007 µg/mL
  IC80, titer in TZM.bl cells: 0.051 µg/mL
[18]
  IC50, titer in TZM.bl cells: 0.17 µg/mL
  IC80, titer in TZM.bl cells: > 0.25 µg/mL
[19]
  IC50, titer in TZM.bl cells: 1.5 µg/mL
  IC80, titer in TZM.bl cells: 22.8 µg/mL
[20]
  IC50, titer in TZM.bl cells: 0.026 µg/mL
  IC80, titer in TZM.bl cells: 1.25 µg/mL
[21]
  IC50, titer in TZM.bl cells: 0.024 µg/mL
  IC80, titer in TZM.bl cells: 3.07 µg/mL

## PGT121 (antibody)
[1]
  IC50: 0.004 µg/mL
  IC80: 0.081 µg/mL
[22]
  IC50: < 0.001 µg/mL
  IC80: < 0.001 µg/mL
[23]
  IC50: > 50 µg/mL
  IC80: > 50 µg/mL
[2]
  IC50: 26.3 µg/mL
  IC80: > 50 µg/mL
[3]
  IC50: 0.334 µg/mL
  IC80: 2.35 µg/mL
[24]
  IC50: > 50 µg/mL
  IC80: > 50 µg/mL
[4]
  IC50: 8.64 µg/mL
  IC80: > 50 µg/mL
[5]
  IC50: > 50 µg/mL
  IC80: > 50 µg/mL
[6]
  IC50: > 50 µg/mL
  IC80: > 50 µg/mL
[25]
  IC50: > 50 µg/mL
  IC80: > 50 µg/mL
[7]
  IC50: > 50 µg/mL
  IC80: > 50 µg/mL
[26]
  IC50: > 50 µg/mL
  IC80: > 50 µg/mL
[8]
  IC50: > 50 µg/mL
  IC80: > 50 µg/mL
[27]
  IC50: < 0.001 µg/mL
  IC80: 0.004 µg/mL
[28]
  IC50: 29 µg/mL
  IC80: > 50 µg/mL
[29]
  IC50: 0.056 µg/mL
  IC80: 0.42 µg/mL
[9]
  IC50: 2.6 µg/mL
  IC80: > 50 µg/mL
[10]
  IC50: < 0.001 µg/mL
  IC80: < 0.001 µg/mL
[11]
  IC50: > 50 µg/mL
  IC80: > 50 µg/mL
[12]
  IC50: > 50 µg/mL
  IC80: > 50 µg/mL
[13]
  IC50: 0.038 µg/mL
  IC80: 0.177 µg/mL
[14]
  IC50: < 0.001 µg/mL
  IC80: 0.003 µg/mL
[15]
  IC50: > 50 µg/mL
  IC80: > 50 µg/mL
[30]
  IC50: < 0.001 µg/mL
  IC80: 0.001 µg/mL
[31]
  IC50: > 50 µg/mL
  IC80: > 50 µg/mL
[16]
  IC50: 1.31 µg/mL
  IC80: 37.9 µg/mL
[32]
  IC50: > 50 µg/mL
  IC80: > 50 µg/mL
[17]
  IC50: < 0.001 µg/mL
  IC80: 0.004 µg/mL
[18]
  IC50: 0.153 µg/mL
  IC80: 4.8 µg/mL
[33]
  IC50: 0.004 µg/mL
  IC80: 0.023 µg/mL
[19]
  IC50: > 50 µg/mL
  IC80: > 50 µg/mL
[20]
  IC50: > 50 µg/mL
  IC80: > 50 µg/mL
[21]
  IC50: 0.008 µg/mL
  IC80: 0.105 µg/mL
[34]
  IC50: 0.008 µg/mL
  IC80: 0.019 µg/mL
[35]
  IC50: > 50 µg/mL
  IC80: > 50 µg/mL
